From article PMC4371549 (The Biochemical journal, 2010)
Read-outs that look alike come from different tables or passages of the source.

B1: cytoplasmic domain of band 3 (domain or fragment, UniProt P02730 1-403, looked up)
chain: MEELQDDYEDMMEENLEQEEYEDPDIPESQMEEPAAHDTEATATDYHTTSHPGTHKVYVELQELVMDEKNQELRWMEAARWVQLEENLGENGAWGRPHLSHLTFWSLLELRRVFTKGTVLLDLQETSLAGVANQLLDRFIFEDQIRPQDREELLRALLLKHSHAGELEALGGVKPAVLTRSGDPSQPLLPQHSSLETQLFCEQGDGGTEGHSPSGILEKIPPDSEATLVLVGRADFLEQPVLGFVRLQEAAELEAVELPVPIRFLFVLLGPEAPHIDYTQLGRAAATLMSERVFRIDAYMAQSRGELLHSLEGFLDCSLVLPPTDAPSEQALLSLVPVQRELLRRRYQSSPAKPDSSFYKGLDLNGGPDDPLQQTGQLFGGLVRDIRRRYPYYLSDITDAFSP
B2: p55 (natural protein, UniProt Q00013 1-466, looked up)
chain: MTLKASEGESGGSMHTALSDLYLEHLLQKRSRPEAVSHPLNTVTEDMYTNGSPAPGSPAQVKGQEVRKVRLIQFEKVTEEPMGITLKLNEKQSCTVARILHGGMIHRQGSLHVGDEILEINGTNVTNHSVDQLQKAMKETKGMISLKVIPNQQSRLPALQMFMRAQFDYDPKKDNLIPCKEAGLKFATGDIIQIINKDDSNWWQGRVEGSSKESAGLIPSPELQEWRVASMAQSAPSEAPSCSPFGKKKKYKDKYLAKHSSIFDQLDVVSYEEVVRLPAFKRKTLVLIGASGVGRSHIKNALLSQNPEKFVYPVPYTTRPPRKSEEDGKEYHFISTEEMTRNISANEFLEFGSYQGNMFGTKFETVHQIHKQNKIAILDIEPQTLKIVRTAELSPFIVFIAPTDQGTQTEALQQLQKDSEAIRSQYAHYFDLSLVNNGVDETLKKLQEAFDQACSSPQWVPVSWVY
B3: cytoplasmic domain of CD44 (domain or fragment, UniProt P16070 671-742, looked up)
chain: NSRRRCGQKKKLVINSGNGAVEDRKPSGLNGEASKSQEMVHLVNKESSETPDQFMTADETRNLQNVDMKIGV
B4: cytoplasmic domain of glycophorin C (domain or fragment, UniProt P04921 82-128, looked up)
chain: RYMYRHKGTYHTNEAKGTEFAESADAALQGDPALQDAGDSSRKEYFI

What was measured:
Experiment in all cases: resonant mirror detection
complex of 4.1G and CaM [1] = molecular target: T1, complex of 4.1G and CaM (human | , UniProt O43491 1-1005; P0DP23 1-149)
[2] = molecular target: full length recombinant human protein 4.1G (human, UniProt O43491 1-1005)
Chain of full length recombinant human protein 4.1G (O43491 whole entry, canonical isoform): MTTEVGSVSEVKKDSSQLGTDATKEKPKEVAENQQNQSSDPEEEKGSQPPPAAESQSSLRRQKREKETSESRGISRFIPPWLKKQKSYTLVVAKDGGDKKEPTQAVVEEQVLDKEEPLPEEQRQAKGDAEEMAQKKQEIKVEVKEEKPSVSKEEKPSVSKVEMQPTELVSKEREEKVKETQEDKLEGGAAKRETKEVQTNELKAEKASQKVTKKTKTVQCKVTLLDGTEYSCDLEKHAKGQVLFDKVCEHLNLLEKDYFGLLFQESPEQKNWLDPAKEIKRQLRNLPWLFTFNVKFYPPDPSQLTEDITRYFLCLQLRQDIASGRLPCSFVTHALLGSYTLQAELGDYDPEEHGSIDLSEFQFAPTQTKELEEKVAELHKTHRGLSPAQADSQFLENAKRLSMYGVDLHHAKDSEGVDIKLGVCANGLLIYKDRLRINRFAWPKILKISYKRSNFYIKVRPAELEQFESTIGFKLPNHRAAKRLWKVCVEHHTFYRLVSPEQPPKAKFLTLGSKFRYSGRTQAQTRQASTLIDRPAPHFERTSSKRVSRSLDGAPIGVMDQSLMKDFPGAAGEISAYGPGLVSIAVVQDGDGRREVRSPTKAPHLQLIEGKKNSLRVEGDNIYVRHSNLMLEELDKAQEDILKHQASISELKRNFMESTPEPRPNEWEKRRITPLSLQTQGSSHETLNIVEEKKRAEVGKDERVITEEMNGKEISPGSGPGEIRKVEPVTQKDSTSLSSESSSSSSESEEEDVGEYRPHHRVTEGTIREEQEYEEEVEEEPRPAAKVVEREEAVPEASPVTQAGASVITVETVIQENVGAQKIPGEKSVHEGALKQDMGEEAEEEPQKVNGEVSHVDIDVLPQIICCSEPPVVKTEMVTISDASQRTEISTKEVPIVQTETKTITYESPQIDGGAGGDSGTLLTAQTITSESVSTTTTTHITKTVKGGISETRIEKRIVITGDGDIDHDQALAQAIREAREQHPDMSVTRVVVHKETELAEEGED

[3] = molecular target: recombinant 4.1R^135 (135kDa isoform of protein 4.1R) (human, UniProt P11171 1-864)
Chain of recombinant 4.1R^135 (135kDa isoform of protein 4.1R) (P11171 whole entry, canonical isoform): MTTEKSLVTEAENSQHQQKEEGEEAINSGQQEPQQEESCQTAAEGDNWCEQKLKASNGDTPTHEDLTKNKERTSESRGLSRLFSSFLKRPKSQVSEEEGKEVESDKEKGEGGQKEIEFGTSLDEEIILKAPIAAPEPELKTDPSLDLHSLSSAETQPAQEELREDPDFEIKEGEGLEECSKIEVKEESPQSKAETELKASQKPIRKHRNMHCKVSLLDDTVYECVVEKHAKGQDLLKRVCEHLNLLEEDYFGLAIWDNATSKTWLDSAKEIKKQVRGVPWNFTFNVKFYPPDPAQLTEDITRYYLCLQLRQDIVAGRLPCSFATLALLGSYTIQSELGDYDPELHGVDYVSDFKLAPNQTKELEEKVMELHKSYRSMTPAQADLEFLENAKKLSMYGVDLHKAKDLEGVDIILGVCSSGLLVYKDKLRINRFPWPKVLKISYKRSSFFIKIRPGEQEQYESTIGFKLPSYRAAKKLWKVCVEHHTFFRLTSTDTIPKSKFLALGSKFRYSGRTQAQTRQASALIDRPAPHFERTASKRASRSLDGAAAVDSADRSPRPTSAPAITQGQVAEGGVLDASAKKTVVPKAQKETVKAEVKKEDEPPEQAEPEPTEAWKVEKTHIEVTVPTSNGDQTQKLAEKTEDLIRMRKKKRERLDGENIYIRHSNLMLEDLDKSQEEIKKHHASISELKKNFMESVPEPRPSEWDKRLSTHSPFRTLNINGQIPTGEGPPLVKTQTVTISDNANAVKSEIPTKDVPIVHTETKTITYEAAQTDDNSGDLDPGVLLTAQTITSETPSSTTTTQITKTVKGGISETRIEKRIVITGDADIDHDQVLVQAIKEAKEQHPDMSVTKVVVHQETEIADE

complex of 4.1G and CaM [4] = molecular target: T1, complex of 4.1G and CaM; remark: listed apart in the source

Binder | Kd (complex of 4.1G and CaM [1]) [µM] | koff (complex of 4.1G and CaM [1]) [s⁻¹] | kon (complex of 4.1G and CaM [1]) [M⁻¹ s⁻¹] | Kd [2] [µM] | koff [2] [s⁻¹] | kon [2] [M⁻¹ s⁻¹] | Kd [3] [µM] | koff [3] [s⁻¹] | kon [3] [M⁻¹ s⁻¹] | Kd (complex of 4.1G and CaM [4]) [µM] | koff (complex of 4.1G and CaM [4]) [s⁻¹] | kon (complex of 4.1G and CaM [4]) [M⁻¹ s⁻¹]
B1 | 0.127 | 0.064 | 510000 | 0.185 | 0.014 | 80000 | 0.023 | 0.0071 | 310000 |  |  | 
B2 |  |  |  | 0.181 | 0.0085 | 47000 | 0.248 | 0.0047 | 19000 |  |  | 
B3 | 0.197 | 0.014 | 71000 | 0.178 | 0.0066 | 38000 | 0.329 | 0.015 | 42000 |  |  | 
B4 | 0.155 | 0.013 | 84000 |  |  |  |  |  |  | 1.25 | 0.015 | 12000
